Assay: soluble on expression in E. coli; label from the status in PepcDB or PDB records
With “MSLREGYLPAVITVSGKDRPGVTAAFFRVLSANQVQVLDVEQSMFRGFLNLAAFVGIAPERVETVTTGLTDTLKVHGQSVVVELQETVQSSRPRSSHVVVVLGDPVDALDISRIGQTLADYDANIDTIRGISDYPVTGLELKVTVPDVSPGGGEAMRKALAALTSELNVDIAIERSGLLRRSKRLVCFDCDSTLITGEVIEMLAAHAGKEAEVAAVTERAMRGELDFEESLRERVKALAGLDASVIDEVAAAIELTPGARTTIRTLNRMGYQTAVVSGGFIQVLEGLAEELELDYVRANTLEIVDGKLTGNVTGKIVDRAAKAEFLREFAADSGLKMYQTVAVGDGANDIDMLSAAGLGVAFNAKPALKEIADTSVNHPFLDEVLHIMGISRDEGHHHHHH” the “soluble on expression in E. coli” value was “soluble”. With “MTFEDLHEYLDYLAKKNDLVTITEEVDPNLDLTYILSEEERMGRGRTILFKNVKGSQVPAVGNLFSTNEKLKAVLGDDPYSIGVKIADIVKPPRDSESFIGKGLEMMRELSGLRPKVSNSIPSGYSELEKVDLYRYPICKTWPDDGGPFITLPLVITKDPSTGIRNMGMYRMQVYDSETTGMHWHIHKGGSENFLKEKEKGKAMDVAVVIGSDPLTIFSAVAPLPNGIDEFMFRGLISRKRSELVKGKTVDLEYPRNFEIVLEGYIDPSETRVEGPFGDHTGYYSLEEEFPVFHVKNIIERNDRIYPTTIVGKLWHEDVVLGKAVERMFLPLIQMVLPEVVDINTMEEAVFHNMVIVSIKKRYPGHAKKVMFALWGLGQLMFSKIIVVVDDDINIHNRKELIWAMTTRIDPDRDVIIIPGTVTDSLDHAAPLFNYGSKMGIDATKKDKSEGYTRRWPDVLEMPKDVVDKVRQIMKNNRLIQLEHHHHHH” the “soluble on expression in E. coli” value was “not soluble”. In the case of NGAFFCNECDCRFSEEASLKRHTLQTHSDK, the “soluble on expression in E. coli” value is reported as “soluble”. With “VPLTVADIDRWNAQAVREVFHAASARAEVTFEASRQLAALSIFANSGGKTAEAAAHHNAGIRRDLDAHGNEALAVARAADRAADGIVKVQSELAALRHAAAAAELTIDALINRVVPIPGLRSTEAQWARTLAKQTELQAELDAIMAEANAVDEELASAVNMADGDAPIPADSGPPVGPEGLTPTQLASDANEERLREERARLQAHLERLQAEYDQLSVRAARDYHNGILDGDAVGRLAALTDELSAARGRLGELDAVDEALSRAPETYLTQLQIPEDPNQQVLAAVAVGNPDTAANVSVTVPGVGSTTRGALPGMVTEARDLRSEVIRQLNAAGKPASVATIAWMGYHPPPNPLDTGSAGDLWQTMTDGQAHAGAADLSRYLQQVRANNPSGHLTVLGHSYGSLTASLALQDLDAQSAHPVNDVVFYGSPGLELYSPAQLGLDHGHAYVMQAPHDLITNLVAPLAPLHGWGLDPYLTPGFTELSSQAGFDPGGIWRDGVYAHGDYPRSFLDAAGQPQLRMSGYNLAAIAAGLPDNTVGPPLLPPILGGGMPAAPGPALRGGR” the “soluble on expression in E. coli” value was “not soluble”. For “MGSDKIHHHHHHMSDIESLGEAAGLFEEPEDFLPPPPKPHFAEYQRSHITKESKSDVKDIKLRLVGTSPLWGHLLWNAGIYTANHLDSHPELIKGKTVLELGAAAALPSVICALNGAQMVVSTDYPDPDLMQNIDYNIKSNVPEDFNNVSTEGYIWGNDYSPLLAHIEKIGNNNGKFDLIILSDLVFNHTEHHKLLQTTKDLLAEKGQALVVFSPHRPKLLEKDLEFFELAKNEFHLVPQLIEMVNWKPMFDEDEETIEVRSRVYAYYLTHEK”, the “soluble on expression in E. coli” value was “not soluble”. For “MGLELPLILGTSSVFRREQMERLGIAFQAASPDFDETPMLGESAPQTALRLAEGKARSLTGRFPEALIVGADQVAWCDGRQWGKPMNLANAQKMLMHLSGREIEFYSAIVLLNTVTGRMRRHIDKTVVVMRQLDELHILRYLEREPDAVYCSCALKSEDLGALLIERIESTDPNALIGLPVFRLVDFLKNEGVEVL”, the “soluble on expression in E. coli” value was “not soluble”. For “MGSDKIHHHHHHVIRRAKPLLGTLVEIAAESLPHSGSEIPLEDKALEAAMTAAFSRVTHIGRLLSFHQQDSELNQLNRQPGTWIRVSQDSLRVLKLAKWLGKASNNLFNCTVGGEMMSRGALPAYLGMPLLLQGEWQDIEIKDNQVRLARPLILTLDGIAKGYAVDMAVSELRRAGVGGGWVNAGGDLRVFGSASLNVLCRGPKGLSQKICVSNMALASSRVSQTLSHDYPALLLPTGNVTDVNIDLESERIVSVSAPFAWRADALTKVAGYLSSDSAADKIAHLGGRLVSFE”, the “soluble on expression in E. coli” value was “not soluble”. With “MGHHHHHHSHMAEISDLDRQIEQLRRCELIKESEVKALCAKAREILVEESNVQRVDSPVTVCGDIHGQFYDLKELFRVGGDVPETNYLFMGDFVDRGFYSVETFLLLLALKVRYPDRITLIRGNHESRQITQVYGFYDECLRKYGSVTVWRYCTEIFDYLSLSAIIDGKIFCVHGGLSPSIQTLDQIRTIDRKQEVPHDGPMCDLLWSDPEDTTGWGVSPRGAGYLFGSDVVAQFNAANDIDMICRAHQLVMEGYKWHFNETVLTVWSAPNYCYRCGNVAAILELDEHLQKDFIIFEAAPQETRGIPSKKPVADYFL” the “soluble on expression in E. coli” value was “not soluble”. For “MDIKAMGYVVIPRLPFKEFRDEKIYDHLFKRAEYRPNQELELGQTIIKVVELAKDFNWSAAQIKYSLDRMEKQGYIKLHRLPQKRGLIVTILHYADYIQLGNYMKNKALEPAQIEHQEVDDKMKNAFELYENKVARSVGPMEAQRIGYMVDDYGEEKVMEAIKTAFQLKGKAASLSYVQAILSNPFTQKRKEKQYGYKQSSQYRHRISNDHAGTSGKVSPLFGNKTGRIRRKG”, the “soluble on expression in E. coli” value was “not soluble”. In the case of “MGNMWGKNRGAVERFQTRREALFDDFKSRSAPASLVNNPRIVKGNETAEQIETTFNEILKLDLIALKSALQTDKYNAYTVLCAFVWRAIDVNSEINCITEVIREAFNTAEALDDNYAQTGEKGQLFGLPFSVKSNFYMENYDVTVGLAKLLEQPKTTTCPMVQFLSDQGAVPFCLTNVPQGLLSYVSSNPIYGTTKNPWDFSRTPGGSSGGEAALLAAGGAAFGIGSDLAGSLRIPAAFCGLVTLKPTQDRLCVTDTHGGLPGRGRLGLSFGFYTRSVKEQEFLLGLIVGRSEYLELCPMSSPAKLEKHIEKDQKLVIGWFVDDGFNPVVPSNRRAVEETVKSLQAKGHQVVELKLADVSEEFPPFAVADMLFRNVMPDNGAYMSEMYAGEQYDEHMKLFIRLVCLKQNFLVSFLLRYGVMPFAKLALSKRLACIGSAYNSDLAACRQNQENTDSYKLQWIRYWKSKKIDALICPSFITPAQPFEYPAQLSNGAFITGLFNMLDVPAGVVPVSPVNQKDVDQLIDGFSTEGDLLLKKQREAARGTTGLPNAVQVVTLPNCEEMCLRVMRLVEESAEGVQRLQWRVGASAAPIDVENTPAGVVSSLEHFERVNLLH”, the “soluble on expression in E. coli” value is reported as “not soluble”. With “MAPRQLAAADLAVGQVVAQREIRLDAQAFAQFAALTGDAHPIHYDAGYVQRQGLRAPIAHGLLLVAISALGATPLSAQLHDAMVAMVGVEAVFMRPVYVDETVQCVYRVAQIEHVAKGRSKTTIAVSIHTTDAPPDAARQAHCVVHLTFLLKTHLQGLEHHHHHH” the “soluble on expression in E. coli” value was “not soluble”. With “VGKPKMDVDLLQVDADLKKEIFDAYYNTMKTAVMTEEKLAREVEIDKVKDTVKEVYAEKFSEHEEEAQLLKEVKQIAEDLEKDVVRELITIDKIRPDGRKLDEIRH” the “soluble on expression in E. coli” value was “not soluble”. For “MSFERSRHDLKLKTSDGMHCVMTNKEIVCLASQFFRQHLKDTTTEFTVGRADSVESIDICLTYMITGIYKKPAQFSPKLASEIFALANQWKVLEPKVLKNSIEKHCCEELQKNYEDIMYVCNMLIIAEDAHFTNVQSCCIATLVFYHVRDFIRIIVNGVESPTEECFSQRREFLKPSLTMQAKRAFAASNEAKCFIKFLPAIGED”, the “soluble on expression in E. coli” value was “not soluble”. In the case of “MGSDKIHHHHHHMQFADFWYIVALSNQLQPNKVLPRTVLGEWLAIFRGEDGQPVALRDRCLHRNSRLSSGKICNGALQCPYHGWVYDGVGNVIAVPAEGNDFKPSPQRRAKCYATKEQDGYVYVRLADTPSVDFEPFSMPHYGQTGWETVRVINRFANNVTNCAENFIDIPHTAFVHPGVFRTSRQQKLEMTVERWNGSVLVEYRNENSNLGWYSRFLNLQSAEIKHSDRFYMPNITSVEYKMARNRHLFITSQSIPETDNSTLVYTDVTYNYGIWNKLARPFVRWTAQHIIRQDVEILGIQGEAIAKYGTQFYNTPADTIHIFVESIMAAISRGEDPRLLPNQSVKVTFWV”, the “soluble on expression in E. coli” value is reported as “not soluble”. With “MGSDKIHHHHHHMATLSDFNRDGKRYVALNGVGDDQDQSILFDHVSSYDLIRSFVDANCNWSRVLESRKNQWKPSILPEADGLAYNPPGKPEDIRNCTVSAFGNTHKTINNSLSSQKDVDWFYKGNGTTVIGTDHPLISNLNSYGCGIEIEYAAVFMINAAGDPVYIGYTIANDFSDAEMRRRMPSLANLSKLATTSFGRFLFLAPIPTKTEIACTILRHGKPAWRVNGQLGSEAMKYSFSYLNELLFQNQSIKGDAYTIHYMLLGASISSNKAEFDMKHSDIILVHDEDNNVILRNEYIDEAIVCACC” the “soluble on expression in E. coli” value was “not soluble”. For “MAHHHHHHMAFTGPNPSIWVGGLDPDLQEQKLYDYFVRIGPVTSVRVCVDSATQKSLGYGYVNFQDPADAEKALDQAGSKLGSRYLRIAKIQRDPSKRRSGVNNILVKKLPKSVDTYALKEMFSKFGRLTAIGLACDEKGESRGYARISFEREESAVDAVREMDGMEMDGQAIVVERYQAQHRDELLKQFTNLYVKNLDPAVTDEKLRAFFAKYGEVSSAKVRDLGAAQSEAGLGYVAFQKHENAARAVEELNGKECEIAKAGSPLDVSRFRSREERQRDRERQRRERAQQHSKYPNLYVKGFDDTVTSERLEELFQRYGETVSVTVMMDKETGVSRCFGFVSMKDQNAASQAIQELNGSTFLSPRPLFVTYALRKDARRQNLEERSKQFRVRQNPMGGPGMGAMPPIGFMGPQMFNNVNMPFMNPRVPIMPMNGMNGIGGMNGMGGMNGVGGVGGMGGMGGMGGMGGMGGMGGMGGMGSMGGMGGMARPMAPNAMSQMRSRPMPQKPPMQSLMPQQHQQAPPQGQNLAAVLANLNPEQQKNVLGERLYSYIVRSHPSVAAKITGMLLEMDNAEILNMLDSPTMLDSKIAEAQDVLNRHMSV”, the “soluble on expression in E. coli” value was “soluble”. With “GMFVWHEYENAAEAAQSLADAVADALQGALDEKGGAVLAVSGGRSPIAFFNALSQKDLDWKNVGITLADERIVPTNHADSNTGLVREYLLKNKAAAAVWIPMVEDGKTETELHPDAVVDYALKHYKQPDVLILGMGNDGHTASIFPKAPQFQTAIDGSAGVALVHTTPVTAPHERISMTLDAIAHTGHVFLAIQGEEKKAVFDQAAQGENREYPISLVLNHQGVNCHVFYAE” the “soluble on expression in E. coli” value was “soluble”. With “MGSDKIHHHHHHMEKEFRILNIVSAKIWGGGEQYVYDVSKALGLRGCTMFTAVNKNDELMRRRFSEVSSVFTTRLHTFNGLFSLYALTRFIRENHISHLMIHTGKIAALSVLLKKLTGVRLIFVKHNVVANKTDFYHRLIQKNTDRFICVSRLVYDVQTADNPFKEKYRIVHNGIDTGRFPPSQEKPDSRFFTVAYAGRISPEKGLENLIEACVILHRKYPQIRLKLAGHGHPDYMCRLKRGVSASGAEPFVSFEGFTEKLASFYRQSDVVVLPSLVPEAFGLSLCEAMYCRTAVISNTLGAQKEIIEHHQSGILLDRLTPESLADEIERLVLNPEAKNALATAGHQCVAARFTINHTADKLLDAI” the “soluble on expression in E. coli” value was “not soluble”. For “TVPDFSAFAVEVPALKSNDEAIDAQIDKLRERFGELKDTKRKLKTDDFAIIDIEAAIDGEKLEEATTEGMSYQVGAGDLIDGLDTALRGLKAGESAEFTTTLKAGEHEGKEAAVTVTVQQTKERKLPELDEEFVQTASEFDTVEELRESIAEQVAEQAKAEQATAIRDEVLKAALAEATFELPEGVVEDQIHAQLHQLLNQVGGDEAALNAALEAQGTSREQFDADNRKNSEEAVRTQLFLDALAEQEQPEVSQQELTDHILFTAQSYGMDPNQFITQLQQSGQIGNLFSDVRRGKALAAAICRVSVKDDEGKAVDPSEYFGEEEESAEESE”, the “soluble on expression in E. coli” value was “not soluble”.
